What all share (experiment): cell-based or functional assay
The target of assay [1] is HIV-1 JR-CSF Env N478A (HIV-1 (isolate JR-CSF)) (UniProt P20871).
In assay [2] the target is HIV-1 Env of isolate 97ZA012 (pseudovirus) (HIV-1 isolate 97ZA012, subtype C).
The target of assay [3] is HIV-1 MGRM-Chronic-B-003 Env (pseudovirus) (HIV-1).
The target of assay [4] is HIV-1 JR-CSF Env D477A (HIV-1 (isolate JR-CSF)) (UniProt P20871).
The target in assay [5] is HIV-1 JR-CSF Env V182A (HIV-1 (isolate JR-CSF)) (UniProt P20871).
In assay [6] the target is HIV-1 Env of isolate MGRM-C-001 (pseudovirus) (HIV-1 isolate MGRM-C-001, subtype C).
For assay [7], the target named is HIV-1 JR-CSF Env N134A (HIV-1 (isolate JR-CSF)) (UniProt P20871).
Assay [8] concerns the target HIV-1 VLGCB3 Env (pseudovirus) (HIV-1).
The target of assay [9] is HIV-1 6535.3 Env (pseudovirus) (HIV-1).
Assay [10] deals with HIV-1 Env of isolate 92UG024 (subtype D) (HIV-1).
Assay [11] concerns the target HIV-1 Env of isolate MGRM-C-026 (pseudovirus) (HIV-1 isolate MGRM-C-026, subtype C).
Assay [12] has as its target HIV-1 Env of isolate MGRM-C-023 (pseudovirus) (HIV-1 isolate MGRM-C-023, subtype C).
In assay [13] the target is HIV-1 QH0692.42 Env (pseudovirus) (HIV-1).
For assay [14], the target named is HIV-1 Env of isolate MGRM-C-012 (pseudovirus) (HIV-1 isolate MGRM-C-012, subtype C).
Assay [15] addresses HIV-1 JR-CSF Env G471A (HIV-1 (isolate JR-CSF)) (UniProt P20871).
Assay [16] concerns the target HIV-1 Env of isolate MGRM-F1-013 (subtype F), on pseudovirus (HIV-1).
Assay [17] has as its target HIV-1 Env of isolate MGRM-F1-018 (subtype F), on pseudovirus (HIV-1).
The target in assay [18] is HIV-1 Env of isolate MGRM-AE-007 (CRF01_AE), on pseudovirus (HIV-1).
Assay [19] concerns the target HIV-1 Env of isolate MGRM-D-019 (HIV-1).
In assay [20] the target is HIV-1 Env of isolate TRJ04551.58 (HIV-1).
For assay [21], the target named is HIV-1 Env of isolate MGRM-F1-014 (subtype F), on pseudovirus (HIV-1).
Assay [22] has as its target HIV-1 Env of isolate MGRM-D-018 (HIV-1).
In assay [23] the target is HIV-1 Env of isolate MGRM-D-029 (subtype D), on pseudovirus (HIV-1).
For assay [24], the target named is HIV-1 Env of isolate 92UG005 (HIV-1).
The target in assay [25] is HIV-1 Env of isolate 94KE105 (subtype AC), on pseudovirus (HIV-1).
Assay [26] concerns the target HIV-1 Env of isolate MG RM-A-006 (HIV-1).
In assay [27] the target is HIV-1 Env of isolate MGRM-Chronic-B-001 (HIV-1).
Assay [28] concerns the target HIV-1 Env of isolate MGRM-C-014 (HIV-1).
In assay [29] the target is HIV-1 Env of isolate MGRM-F1-008 (subtype F), on pseudovirus (HIV-1).
Assay [30] concerns the target HIV-1 Env of isolate 92WR009 (HIV-1).

Consider 4858_P08 (PGT-123) (antibody), for which the Fold IC50 increase relative to wild-type was 0.6 fold in [1]; 2.3 fold in [4]; 2.8 fold in assay [5]; 0.4 fold in [7]; 1.3 fold in assay [15]. For the same substance, the IC50 (µg/mL) neutralization was 0.002 µg/mL in assay [2]; 42.4 µg/mL in [6]; 0.001 µg/mL in assay [11]; 0.011 µg/mL in [12]; 0.605 µg/mL in assay [14]. Besides, the IC50, pseudovirus neutralization was 0.008 µg/mL in [3], 0.004 µg/mL in assay [8], 0.004 µg/mL in assay [9] and 0.158 µg/mL in [13]. The IC50 (µg/mL), pseudovirus neutralization in assay [10] is > 50 µg/mL.
As a reminder, the IC50 is the concentration that gives 50% inhibition. Read a high IC50 as lower potency. Take 5114_A19 (PGT-128) (antibody): the IC50, pseudovirus neutralization in assay [16] was 12.7 µg/mL; in [17] it was 0.023 µg/mL; in [21], 0.277 µg/mL; in assay [23], > 50 µg/mL; in assay [29], > 50 µg/mL. Besides, the IC50, single-round pseudovirus neutralization is > 50 µg/mL in assay [18] and 0.007 µg/mL in assay [25]. Besides, the Fold IC50 increase relative to wild-type in assay [1] is 0.8 fold; in [4] it was 0.7 fold; in [5], 1.2 fold; in assay [7], 1.2 fold; in assay [15] it was 0.9 fold. The IC50 is > 50 µg/mL in assay [19]; 0.019 µg/mL in assay [20]; 0.008 µg/mL in assay [22]; 0.018 µg/mL in assay [24]; > 50 µg/mL in assay [27]; > 50 µg/mL in assay [28]. The neutralization IC50 in assay [26] is > 50 µg/mL; in assay [30] it was 0.812 µg/mL.
For 5123_A06 (PGT-125) (antibody), the Fold IC50 increase relative to wild-type worked out at 1.5 fold in assay [1]; 3.4 fold in [4]; 1.3 fold in assay [5]; 0.5 fold in assay [7]; 1 fold in assay [15]. The IC50 (µg/mL) neutralization is 2.46 µg/mL in assay [2]; > 50 µg/mL in assay [6]; 0.005 µg/mL in assay [11]; 1.31 µg/mL in [12]; > 50 µg/mL in [14]. Further, the IC50, pseudovirus neutralization is 0.157 µg/mL in [3], 0.015 µg/mL in assay [8], 0.01 µg/mL in assay [9] and 0.048 µg/mL in assay [13]. In assay [10], the IC50 (µg/mL), pseudovirus neutralization was > 50 µg/mL.
As to 5136_H01 (PGT-131) (antibody), the IC50, pseudovirus neutralization is > 50 µg/mL in assay [16]; > 50 µg/mL in assay [17]; > 50 µg/mL in assay [21]; > 50 µg/mL in assay [23]; 2.74 µg/mL in [29]. The figures for the IC50, single-round pseudovirus neutralization in assay [18] and in assay [25] were 0.026 µg/mL and 0.013 µg/mL, respectively. Moreover, the Fold IC50 increase relative to wild-type in assay [1] amounted to 1 fold; in assay [4], 1 fold; in assay [5], 1.1 fold; in assay [7] it was 0.5 fold; in assay [15], 1.2 fold. Besides, the IC50 in [19] was > 50 µg/mL; in assay [20], 0.088 µg/mL; in [22], 0.148 µg/mL; in assay [24], 0.854 µg/mL; in assay [27], > 50 µg/mL; in assay [28], > 50 µg/mL. For the same substance, the neutralization IC50 was > 50 µg/mL in assay [26] and 3.12 µg/mL in assay [30].
As to 5141_B17 (PGT-126) (antibody), the Fold IC50 increase relative to wild-type in assay [1] turned out to be 1 fold; in assay [4] it was 1.1 fold; in assay [5], 1.4 fold; in [7] it was 0.6 fold; in assay [15] it was 1.2 fold. For the same substance, the IC50 (µg/mL) neutralization is 0.042 µg/mL in assay [2]; > 50 µg/mL in [6]; 0.007 µg/mL in assay [11]; 0.065 µg/mL in assay [12]; 0.111 µg/mL in assay [14]. For the same substance, the IC50, pseudovirus neutralization in assay [3] stood at 0.041 µg/mL; in [8], 0.007 µg/mL; in [9], 0.022 µg/mL; in assay [13], 0.048 µg/mL. In addition, the IC50 (µg/mL), pseudovirus neutralization in assay [10] was > 50 µg/mL.
For 5145_B14 (PGT-127) (antibody), the Fold IC50 increase relative to wild-type is 1.2 fold in assay [1]; 1.7 fold in assay [4]; 1.6 fold in assay [5]; 1 fold in [7]; 1.2 fold in assay [15]. Also, the IC50 (µg/mL) neutralization is > 50 µg/mL in [2]; > 50 µg/mL in [6]; 0.014 µg/mL in assay [11]; 1.08 µg/mL in [12]; 1.07 µg/mL in assay [14]. Moreover, the IC50, pseudovirus neutralization in assay [3] was 0.12 µg/mL; in assay [8], 0.022 µg/mL; in assay [9], 0.02 µg/mL; in [13], 0.129 µg/mL. For the same substance, in assay [10], the IC50 (µg/mL), pseudovirus neutralization is > 50 µg/mL.
In the case of 5147_N06 (PGT-130) (antibody), the IC50, pseudovirus neutralization in [16] was > 50 µg/mL; in [17], > 50 µg/mL; in assay [21] it was 11.8 µg/mL; in [23], > 50 µg/mL; in assay [29], 0.065 µg/mL. Moreover, the figures for the IC50, single-round pseudovirus neutralization in assay [18] and in [25] were 0.083 µg/mL and 0.004 µg/mL, respectively. The Fold IC50 increase relative to wild-type turned out to be 0.8 fold in assay [1]; 1.1 fold in assay [4]; 1.2 fold in [5]; 0.6 fold in [7]; 0.8 fold in assay [15]. Also, the IC50 in [19] was > 50 µg/mL; in assay [20] it was 0.023 µg/mL; in assay [22] it was 0.049 µg/mL; in assay [24], 0.959 µg/mL; in assay [27] it was > 50 µg/mL; in [28], > 50 µg/mL. Moreover, the neutralization IC50 in assay [26] was > 50 µg/mL; in [30] it was 1.27 µg/mL.
Take 5329_C19 (PGT-136) (antibody): the IC50, pseudovirus neutralization in assay [16], in assay [17], in [21], in [23] and in assay [29] was > 50 µg/mL in each case. Also, the IC50, single-round pseudovirus neutralization in [18] and in assay [25] was > 50 µg/mL in each case. Besides, the concentration for half-maximal inhibition (IC50) in [19], in [20], in [22], in [24], in assay [27] and in assay [28] was > 50 µg/mL in each case. Besides, the neutralization IC50 in assay [26] and in [30] was > 50 µg/mL in each case.
Consider 5345_I01 (PGT-137) (antibody), for which the IC50, pseudovirus neutralization in assay [16], in [17], in [21], in [23] and in assay [29] was > 50 µg/mL throughout. Also, the IC50, single-round pseudovirus neutralization is > 50 µg/mL in assay [18] and 18.5 µg/mL in assay [25]. Besides, the IC50 in [19] was > 50 µg/mL; in assay [20], > 50 µg/mL; in assay [22] it was 15.1 µg/mL; in assay [24], > 50 µg/mL; in assay [27], > 50 µg/mL; in assay [28], > 50 µg/mL. Also, the neutralization IC50 in [26] and in assay [30] was > 50 µg/mL in each case.
